Laboratory results: the RNAGym collection of RNA variant scans (doi:10.1073/pnas.2313332121)

B1: TPR t1 (parent)
chain: GACCAAUCUGCCCUCAGAGCUCGAGAACAUCUUCGGAUGCAGAGGAGGCAGGCUUCGGUGGCGCGAUAGCGCCAACGUCCUCAACCUCCAAUGCAUCCCACCACAUGAUGAUGCCUGAAGAGCCUUGGUUUUUUG

Variants of: B1
Assay: polymerase ribozyme fitness, log enrichment relative to wild type (log ratio); higher = more active; in vitro selection for triplet polymerase activity
Outline: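 Mutant libraries of both subunits of a heterodimeric triplet polymerase ribozyme were PCR-built, transcribed, and selected once in triplicate, with frozen incubation at −7 °C and capture of gel-excised extended constructs on streptavidin beads before RT-PCR. Illumina sequencing of input and output libraries was filtered to genotypes with ≥10 input reads and ≥1 read per output. Fitness is the logarithm of genotype enrichment over wild-type enrichment, using inverse-variance-weighted replicate averages. The logarithm is base 2.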

| Variant | polymerase ribozyme fitness (log ratio) |
| --- | --- |
| G19U U21A G47C A90C G113C | -4.49 |
| G19A G61A U125G | -2.54 |
| A18C C20A U54A U96A | -3.05 |
| G17U C72U U130A | -2.54 |
| A18G G57U U59C C62A C94U G117U | -5.27 |
| A18U C82A U92A | -4.27 |
| A18U G42A C53G C85U C89A | -3.31 |
| G19U G45C A91C A111C | -3.35 |
| A18G C64U G69C U78G G113C | -3.05 |
| A18G C49A C64U C79U G120C G128U | -3.3 |
| G19U C72U A84C | -2.82 |
| A18C G39A | -3.32 |
| A18C C104A | -4.52 |
| G19U C124U | -1.97 |
| A18G C123U U132A | -2.14 |
| A18G U92C C104U G117U C123A | -2.56 |
| A18U G25C G57C C89G U92G C115U | -5.83 |
| G19U A119G G128A | -3.71 |
| A18G U131A | -2.69 |
| G17U G61A U81G C101G G117C G128U | -7.2 |
| A18U G61C U112A G122U | -6.15 |
| G17U G69U A84C | 0.342 |
| A18U C40A C70A A121C | -5.25 |
| A18G G19U C73A C79U | -1.75 |

| Variant | polymerase ribozyme fitness (log ratio) |
| --- | --- |
| A18C C53A C62U C72U C85G G122U | -4.78 |
| G19A G60C A75U A90C C98U C114A | -3.78 |
| A18C U87G C89U | -2.03 |
| A18U G52A C72A C73A U112A | -3.87 |
| G19U C86G | -3.71 |
| A18G G113C | -1.3 |
| C20A C70U G93A G113C U132C | -7.65 |
| G19A C70G C85U C114G | -7.51 |
| A18U G42U G63C A66G C123U | -4.29 |
| G19U C31U C56G C124U | -6.42 |
| G19U U21G C49A G71A C114A | 0.71 |
| G19A C56U | -2.34 |
| A18C C53G G60U U116G | -2.87 |
| A18U U54G C114U | -4.87 |
| A18U G45U U87C A90G | -2.54 |
| C20A C49G | -2.27 |
| G17U U21A | -3.26 |
| A18C C115U | -2.17 |
| C20A C73A | -2.14 |
| A18U G60A | -2.24 |
| A18G C64U G113A | -1.65 |
| G19A G60A G93U | -3.84 |
| C20A C76A U106A | -4.96 |
| A18U U21C G36A C72U C114U | -4.3 |

| Variant | polymerase ribozyme fitness (log ratio) |
| --- | --- |
| G17U C89U | -1.77 |
| A18U G45U G63U G71C G110C C114G C124U | -7.92 |
| G19U A43C | -3.38 |
| G19C G48U | -2.5 |
| G19U A43U A74U | -3.22 |
| G19U C20U U106C | -2.36 |
| A18U U38G G71A C89A U129A | -6.64 |
| G19C C40U G93U C114G G122A | -0.927 |
| C20A A46C C62U C86U | -3.97 |
| A18U A74C A90U A121C U129A | -1.29 |
| C20A G52C | -2.97 |
| G17U G63C C73U | -1.67 |
| G17U C40A G42A C49A | -6.46 |
| C20A G42U G120A | -3.01 |
| G19A A43U C49U C124U | -2.19 |
| A18G A24G U55A | -5.14 |
| G17U C73G C124G G128C | -2.67 |
| G19U A41G G63U | -4.85 |
| G17U G117C | -5.24 |
| A18G A50U C56A C79A C101U A118U C124U | -7.24 |
| G19A G42U G71U G122A | -3.83 |
| G17U C72U | -3.14 |
| C20A C28U G39U G71U C97U C123A | -6.92 |
| G19A G71A | -3.99 |

| Variant | polymerase ribozyme fitness (log ratio) |
| --- | --- |
| A18G C56G C114A | -4.99 |
| G19U A74G | -3.02 |
| A18G U59A A111U | -6.09 |
| G17U U21A U112C C123A | -3.07 |
| A18C U55C C62U | -3.73 |
| G17U G60U C88U C97U G120A | -2.79 |
| A18U C20G G61A | -6.8 |
| G19U C20G G57U C70G C85U C101U U112G | -6.53 |
| A18G U67A C102U C123A | -5.64 |
| A18U A43U A83G C89G G110U U125A | -5.8 |
| A18U A37C C101A | -4.02 |
| C20A G44U G69A C86A C123G | -6.49 |
| A18U U54C A83G U109A | -6.59 |
| A18U C114A | -2.02 |
| A18U C114G | -4.17 |
| C20A G42A G57U A100C | -6.04 |
| A18G G44A C72G | -5.19 |
| G19U A43U G47U U112A G120A | -2.08 |
| C20A A50G G52A C124A | -1.12 |
| G19C C86G A121G | -0.947 |
| C20A G42U G60A | -3.62 |
| A18C C34A C99A C123A U126A | -5.25 |
| A18G C89A C114G U133A | -6.53 |
| C20A C22A C62G U81G U96G A121U | -5.74 |

| Variant | polymerase ribozyme fitness (log ratio) |
| --- | --- |
| C20A A27U A43U | -5.37 |
| G19C U87A | -2.58 |
| C20A C82A U87G | -1.92 |
| A18G G36A U116C A118G | -2.17 |
| A18C C20U C88G G110C | -4.72 |
| G19C U130C | -2 |
| C20A U96G | -3.33 |
| A18G A24G C34U G61A A111U G128U G135U | -6.04 |
| A18U A27U C98A G110A | -7.19 |
| A18U C86G G113U | -4.47 |
| C20A C72U | -2.98 |
| A18C G71U U78G | -4.63 |
| A18G C124A | -0.403 |
| A18U G39U G48U C73U A84C | -4.34 |
| A18C C72U C73U U106A C124U | -1.79 |
| C20A C72A C101A | -5.69 |
| C20A G51A G61C | -6.95 |
| A18U C56U C94U A111C C114U | -5.39 |
| G17U C34A | -3.65 |
| G17U G39U C88U A91C G117U | -3.62 |
| A18C C20U G110C | -6.35 |
| C20A C49A G63U | -4.62 |
| G19C C49G U92A U125G | -4.13 |
| A18G G39C C94A U112G C124G | -5.87 |

| Variant | polymerase ribozyme fitness (log ratio) |
| --- | --- |
| G17U C114U U125A | -5.53 |
| A18U G71C C104A | -6.56 |
| C20A G77A | -3.54 |
| C20A G77U | -3.11 |
| G19A G48U C49U G69U G93U | -4.49 |
| A18C C40U A41G C56G C70U | -4.84 |
| C20A G45A | -2.28 |
| C20A C89U U130A | -3.54 |
| A18C | -2.11 |
| A18G | -1.83 |
| A18U | -2.13 |
| G19C G42U U92A | -2.69 |
| G19U G39U G48A A111G | -4.12 |
| A18G A41C A43G G57U | -4.59 |
| A18U G44U C88G C89A | -2.55 |
| A18U U96C U112A | -1.44 |
| C20A C31G G39U A46U G47A A100C A108U U125A | -6.51 |
| G17U A43U G48U A74G | -3.04 |
| A18C C72U | -2.49 |
| A18C C72A | -2.45 |
| A18C C72G | -3.9 |
| G19U C56A | -3.03 |
| G19U A26U C64U U78C C114A | -1.82 |
| G19C C72G | -3.09 |

| Variant | polymerase ribozyme fitness (log ratio) |
| --- | --- |
| G19A G77U | -2.96 |
| A18U G48U | -2.49 |
| G19U C82A | -3.28 |
| G19A C85U | -3.47 |
| C20A C28G C94U A111G | -7.69 |
| A18C C22U C73A A121U | -5.5 |
| G19A A43U C101A U129G | -4.15 |
| A18U C40G C114A | -3.02 |
| A18U C34U G61C A74C A100C G107U G110C | -7.86 |
| G19C G71U C114A G128A | -2.59 |
| G19A C62U G93U | -4.23 |
| C20A G63A A74C U96A | -5.16 |
| C20A G44U | -4.1 |
| G17U A24G A26G U112A | -6.66 |
| C20A G57C | -3.31 |
| G17U A74U | -3.16 |
| C20A A37U A83C | -3.38 |
| A18U A90C G122A | -2.49 |
| C20A G117A | -3.21 |
| C20A G117U | -3.2 |
| G17U C49U | -2.42 |
| C20A C40G | -4.64 |
| A18G G61U C94G G113U | -3.32 |
